Measured values reported in PMC12646051.

Columns and labels:
[1] = target: β2-RF (full-length human BK β2 subunit with C-terminal mCherry-FLAG) (human) (UniProt Q9Y691); experiment: pull-down + SEC; plasmid weight ratio 1:0.2:1.8 (TR2)
[2] = target: hSlo1EM-TS (modified human Slo1 BK α subunit with a C-terminal twin-strep tag) (human) (UniProt Q12791); experiment: pull-down + SEC; as a3 but plasmid weight ratio 1:0.2:1.8 (TR2)
[3] = target: β2-RF (full-length human BK β2 subunit with C-terminal mCherry-FLAG) (human) (UniProt Q9Y691); experiment: as above
[4] = target: hSlo1EM-TS (modified human Slo1 BK α subunit with a C-terminal twin-strep tag) (human) (UniProt Q12791); experiment: pull-down + SEC; TR1 (1:1:1); three-step affinity purification: streptactin XT (Slo1), then anti-FLAG M2 resin (β2) and anti-ρ1D4 resin (β3) one after the other, in either order; eluates, input and flow-through read by dual-colour FSEC
[5] = target: β2-RF (full-length human BK β2 subunit with C-terminal mCherry-FLAG) (human) (UniProt Q9Y691); experiment: as above

Chain of β2-RF (full-length human BK β2 subunit with C-terminal mCherry-FLAG) (human) (Q9Y691 whole entry): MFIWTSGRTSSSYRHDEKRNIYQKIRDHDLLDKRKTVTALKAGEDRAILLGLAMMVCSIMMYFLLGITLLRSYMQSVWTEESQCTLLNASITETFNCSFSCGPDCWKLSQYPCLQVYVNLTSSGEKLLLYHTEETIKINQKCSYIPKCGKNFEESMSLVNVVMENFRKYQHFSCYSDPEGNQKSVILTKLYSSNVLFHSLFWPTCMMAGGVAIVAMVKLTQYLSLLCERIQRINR
Chain of β3-Gρ (full-length human BK β3a subunit with C-terminal eGFP-ρ1D4) (natural protein) (Q9NPA1 whole entry): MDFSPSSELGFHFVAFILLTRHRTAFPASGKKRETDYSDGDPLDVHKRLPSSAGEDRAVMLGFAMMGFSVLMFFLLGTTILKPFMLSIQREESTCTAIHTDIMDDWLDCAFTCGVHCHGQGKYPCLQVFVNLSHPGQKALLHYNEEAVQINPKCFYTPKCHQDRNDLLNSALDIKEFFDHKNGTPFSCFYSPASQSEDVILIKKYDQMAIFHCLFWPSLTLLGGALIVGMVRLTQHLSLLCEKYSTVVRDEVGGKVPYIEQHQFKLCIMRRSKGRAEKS
Chain of hSlo1EM-TS (modified human Slo1 BK α subunit with a C-terminal twin-strep tag) (human) (Q12791 whole entry): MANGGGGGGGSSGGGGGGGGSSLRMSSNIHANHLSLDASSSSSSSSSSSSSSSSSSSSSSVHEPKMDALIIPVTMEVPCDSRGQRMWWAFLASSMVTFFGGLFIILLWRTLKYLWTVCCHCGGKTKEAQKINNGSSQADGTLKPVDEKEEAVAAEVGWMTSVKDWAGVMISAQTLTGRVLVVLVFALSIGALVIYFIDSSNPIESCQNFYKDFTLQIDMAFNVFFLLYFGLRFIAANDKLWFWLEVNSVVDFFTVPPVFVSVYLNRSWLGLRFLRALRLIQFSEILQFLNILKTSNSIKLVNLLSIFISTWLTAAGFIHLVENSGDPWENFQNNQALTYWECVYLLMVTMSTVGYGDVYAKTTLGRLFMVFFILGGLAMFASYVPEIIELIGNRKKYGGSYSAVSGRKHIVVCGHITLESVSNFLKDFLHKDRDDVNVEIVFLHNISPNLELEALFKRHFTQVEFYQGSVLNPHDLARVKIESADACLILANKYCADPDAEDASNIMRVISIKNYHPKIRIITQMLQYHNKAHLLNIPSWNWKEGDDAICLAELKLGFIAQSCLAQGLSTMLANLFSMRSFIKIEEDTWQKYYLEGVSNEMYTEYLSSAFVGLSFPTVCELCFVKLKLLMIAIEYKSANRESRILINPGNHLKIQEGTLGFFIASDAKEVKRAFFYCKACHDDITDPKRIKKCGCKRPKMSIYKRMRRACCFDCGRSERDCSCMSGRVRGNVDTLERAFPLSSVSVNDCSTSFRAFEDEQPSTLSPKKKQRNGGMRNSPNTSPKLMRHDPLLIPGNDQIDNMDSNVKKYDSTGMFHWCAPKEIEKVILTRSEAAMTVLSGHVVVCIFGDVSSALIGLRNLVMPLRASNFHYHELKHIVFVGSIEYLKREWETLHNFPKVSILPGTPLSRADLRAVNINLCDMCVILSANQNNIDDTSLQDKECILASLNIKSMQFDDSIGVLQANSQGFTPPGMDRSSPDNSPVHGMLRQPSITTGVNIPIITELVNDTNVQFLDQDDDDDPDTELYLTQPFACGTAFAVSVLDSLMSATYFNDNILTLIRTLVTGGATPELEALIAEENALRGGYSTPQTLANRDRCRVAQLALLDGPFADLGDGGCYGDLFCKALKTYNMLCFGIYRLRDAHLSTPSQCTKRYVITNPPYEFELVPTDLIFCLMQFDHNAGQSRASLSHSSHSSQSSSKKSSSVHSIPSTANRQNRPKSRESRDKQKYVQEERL

β3-Gρ (full-length human BK β3a subunit with C-terminal eGFP-ρ1D4) (natural protein)
molar ratio of β2-RF to β3-Gρ in the triply purified complex [1]: 0.89 mol/mol
stoichiometry N (β3 per 4 Slo1) [2]: 2.1
percent of total Slo1–β2 complexes that are ternary (hold β3 too) [3]: 58%
stoichiometry N (β3 per 4 Slo1) [4]: 1.2
molar ratio of β2-RF to β3-Gρ in the triply purified complex [5]: 2.33 mol/mol
percent of total Slo1–β2 complexes that are ternary (hold β3 too) [5]: 14%
